According to the supplement of paper PMC9170038:

System: MS2 coat protein
Assay: apparent KD of MS2 coat protein; designed switch direction (-1 OFF switch, 1 ON switch): 1; higher = weaker reporter binding
Method in brief: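 Designed RNA switches were transcribed on Illumina chips by stalled E. coli RNA polymerase and titrated with SNAP-549-labelled MS2 coat protein from 0.7 or 1.5 nM, doubling to 3 µM. Step length ran from 0.8–1.5 h at the lowest concentration to 10–20 min at the highest. The apparent KD is the median over clusters for each design, from curve-fitted normalised cluster fluorescence.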

[1] = input ligand: microRNA oligo, concentration not stated
[2] = Eterna round: R95, input ligand: FMN 200 uM
[3] = Eterna round: R95, input ligand: microRNA oligo, concentration not stated
[4] = Eterna round: R95, input ligand: none

Row | Sequence | apparent KD of MS2 coat protein (input ligand: FMN 200 uM) [nM] | apparent KD of MS2 coat protein [1] [nM] | apparent KD of MS2 coat protein (input ligand: none) [nM] | apparent KD of MS2 coat protein [2] [nM] | apparent KD of MS2 coat protein [3] [nM] | apparent KD of MS2 coat protein [4] [nM]
1 | AAACCACAUGAGGAUCACCCAUGUAAAAAUAUGGGAGGAUAUCGGAAUAAAAUAAAGAAACGAGAAGGCCUAAAAA [59%, Flamingo, 5] (Eterna round: R96, puzzle: Same State 1) | 26.6 | 212 | 256 | – | – | –
2 | AAAGAAAAACUAGAGGAUAUCCGAGUGGUAACAUGAGGAUCACCCAUGUGAUGAAAGGAACAUGAGGAGAAGGCUAGAAGAAAAA [JL Nando mod 8] (Eterna round: R96, puzzle: Same State 2) | 20.6 | 47.6 | 56.5 | – | – | –
3 | AAAGACAUGGUGCAGGAUAUAUUAAUAGUCACAUGAGGAUCACCCAUGUUCAGAUAUCUGAACGAGUAGAAGGGCGAUGAAAAAA [SameState2 Malc#5] (Eterna round: R96, puzzle: Same State 2) | 530 | 28.7 | 204 | – | – | –
4 | AAAGUGGGCUUAUUUGGAUUCUCGUCUGGACAUGAGGAUCACCCAUGUAGGCGCUUGGUCUGAGACUAAGCAGCCGA [Didiinso] (Eterna round: R96, puzzle: Sensor for hsa-mir-208a) | 113 | 28.5 | 75.3 | – | – | –
5 | AAAUAAAACACAGGAUAUGCAGCCAAUACGGCGGCAGAAGGGUGAGACAUGAGGAUCACCCAUGUACACGUCCCACAGACGUGC [Mabege] (Eterna round: R96, puzzle: Same State NG 1) | 426 | 89.9 | 119 | – | – | –
6 | AACAAACAUGAGGAUCACCCAUGUACAGACCUGGACAUUGUCGAGGAUAUCAGCAAGAAAACAGCUGAGAAGGUGACGCCAGAG [Eternabot solution 6] (Eterna round: R96, puzzle: Same State NG 3) | 30.8 | 52.2 | 70.3 | – | – | –
7 | AACAAUCUAUCUGAGGAUAUCAUGAGAAUAACAUGAGGAUCACCCAUGUGCAGGAAAACUGCAUAUGAGAAGGCAGAUAGAUUGG [Mat - Same State 2 - Mod - D21] (puzzle: Same State 2) | – | – | – | 78.6 | 546 | 2730
8 | AACAAUCUAUCUGAGGAUAUCAUGUCAAAGACAUGAGGAUCACCCAUGUACCAGGAAACUGGAUAUGAGAAGGCAGAUAGAUUGA [SS2: 1119] (Eterna round: R96, puzzle: Same State 2) | 16.6 | 80 | 162 | – | – | –
9 | AACAAUCUAUCUGAGGAUAUCUUGAAAUAAACAUGAGGAUCACCCAUGUGCAGGAAAACUGCAUAUGAGAAGGCAGAUAGAUUGA [salish99_ss2_r3_028] (puzzle: Same State 2) | – | – | – | 14.5 | 124 | 148
10 | AACCUAGGCAGAGGAUAUCUGGACGCGCGCACCAGAGAAGGCUGCGAGCCCUGAAUAUACAUGAGGAUCACCCAUGUCCCGCAC [Eternabot solution 15] (Eterna round: R96, puzzle: Same State NG 1) | 31.2 | 27.8 | 26.5 | – | – | –
11 | AACUAUCUAUCUCAGGAUAUCAUGUCAAAGACAUGAGGAUCACCCAUGUACCAGGAAACUGGUUAUGAGAAGGGAGAUAGAUAGU [Mat - Same State 2 - Mod - D41] (puzzle: Same State 2) | – | – | – | 127 | 263 | 602
12 | AACUAUCUAUCUGAGGAUAUCAUGAAAUAAACAUGAGGAUCACCCAUGUGCAGGAAAACUGCAUAUGAGAAGGCAGAUAGAUUGA [salish99_ss2_r3_021] (puzzle: Same State 2) | – | – | – | 66.6 | 1250 | 2000
13 | AAGAAACAUGAGGAUCACCCAUGUAAUAAUAUGGGAGGAUAUACAAGGACAAUAGUCAAGGUAGAAGGCCUAAGAA [Mat - Same State 1 - Meechl mod - D142] (Eterna round: R96, puzzle: Same State 1) | – | 123 | – | – | – | –
14 | AAGAAACAUGAGGAUCACCCAUGUGAGAAUAUGGGAGGAUAUACAAGGACGUAAGUCAAGGUAGAAGGCCUAAGAA [Mat - Same State 1 - Meechl mod - D139] (Eterna round: R96, puzzle: Same State 1) | – | 143 | – | – | – | –
15 | AAGAAUCUAUCUCAGGAUAUCAUGUCAAAGACAUGAGGAUCACCCAUGUACCAGGAAACUGGUUAUGAGAAGGGAGAUAGAUUCA [Mat - Same State 2 - Mod - D31] (puzzle: Same State 2) | – | – | – | 98.6 | 118 | 79.6
16 | AAGAAUCUAUCUCAGGAUAUCAUGUCAAAGACAUGAGGAUCACCCAUGUACCAGGAAACUGGUUAUGAGAAGGGAGAUAGAUUCG [Mat - Same State 2 - Mod - D37] (puzzle: Same State 2) | – | – | – | 235 | 134 | 233

Row | Sequence | apparent KD of MS2 coat protein (input ligand: FMN 200 uM) [nM] | apparent KD of MS2 coat protein [1] [nM] | apparent KD of MS2 coat protein (input ligand: none) [nM] | apparent KD of MS2 coat protein [2] [nM] | apparent KD of MS2 coat protein [3] [nM] | apparent KD of MS2 coat protein [4] [nM]
17 | AAGACAAGCUUUAUGUUCUUCCUAUUCCAACAUGAGGAUCACCCAUGUAGUCUGACGAUUGUGAGUGUAGUUGAGAU [JR_SHM208A_Sub027] (puzzle: Sensor for hsa-mir-208a) | – | – | – | 58.3 | 76.9 | 76.5
18 | AAGAGAGAAAUACAGGAUAUGAGGAAAGGAACAUGAGGAUCACCCAUGUAAGAGAAAGGGAAAGAUCAGAAGGGUAGAGAAGAGA [JR_SS2_Sub001] (puzzle: Same State 2) | – | – | – | 76.6 | 66.1 | 264
19 | AAGAUGGUUGUAGGAUAUCCACCACUGAAGGGUGGAGAAGGGCACUCCAACAUGAGGAUCACCCAUGUACUACAAGUAGCAUCG [Eternabot solution 26] (Eterna round: R96, puzzle: Same State NG 1) | 267 | 188 | 240 | – | – | –
20 | AAGCUGUGUGUAUGGUCAUUGUCAACGGUACAUGAGGAUCACCCAUGUAGCAUUAACCAUCCGACUCUGUUGGAGGU [high scoring solution 6] (Eterna round: R96, puzzle: Sensor for hsa-mir-208a) | 58.7 | 40.7 | 51.7 | – | – | –
21 | AAGUGGUCCCAAGGAUAUGUCCAAAAGAAGGGCUGAGACAUGAGGAUCACCCAUGUCUCGGCGGUACAGAAGGUGGAGACAGGU [Solaena] (Eterna round: R96, puzzle: Same State NG 2) | 10.5 | 10 | 14 | – | – | –
22 | AAUUAAGAUCAAGGAUAUCACGUCGUUUAGACGUGAGAAGGUGAUAAUUACAUGAGGAUCACCCAUGUAUAACAUGAAUUAAUU [SSNG1/9-B3] (Eterna round: R96, puzzle: Same State NG 1) | 25.5 | 27.5 | 32.1 | – | – | –
23 | AAUUAAGAUCGAGGAUAUCACGUCGUUUAGACGUGAGAAGGCGAUCAUAACAUGAGGAUCACCCAUGUAUUACAUGAAUUAAUU [SSNG1/4-B3] (Eterna round: R96, puzzle: Same State NG 1) | 20.6 | 26.6 | 29.1 | – | – | –
24 | AAUUAUUUACAUGAGGAUCACCCAUGUAUUAUUACAAGCUUUAUCCUCGUUUUAUUUAUUAUUAUUAUUAUUAUUAA [benbell_design1] (puzzle: Sensor for hsa-mir-208a version 2) | – | – | – | 369 | 33 | 326
25 | AAUUCACGAGCACAGGAUAUGCUUGCCAACACAUGAGGAUCACCCAUGUCGGGCUACUAAUAAGAGCAGAAGGGUGACUCAUGAU [Esticece] (puzzle: Same State 2) | – | – | – | 36.6 | 342 | 58.2
26 | AAUUUAAUACAUGAGGAUCACCCAUGUAAAUUAAUUAAGAUCAAGGAUAUCAGCUCGAAUAGAGCUGAGAAGGUGAUCACAUGU [SSNG3/19-A1] (Eterna round: R96, puzzle: Same State NG 3) | – | 244 | – | – | – | –
27 | AAUUUAAUACAUGAGGAUCACCCAUGUAAAUUAAUUAAGAUCAAGGAUAUCAGCUCGUUUAGAGCUGAGAAGGUGAUCACAUGU [SSNG3/19-A3] (Eterna round: R96, puzzle: Same State NG 3) | – | 163 | – | – | – | –
28 | ACAAGCUUUUUAGGAGAGAAAGGUGGGAUACAUGAGGAUCACCCAUGUAUUGUUGUUAAUAGUGGACCUCGUCUUAU [JR_SHM208A_Sub083] (puzzle: Sensor for hsa-mir-208a) | – | – | – | 26.5 | 15.7 | 29.2
29 | ACAUAGGGAACAGGAUAUGGGAAAAUUCCCUACAUGAGGAUCACCCAUGUCCGUAGGGACAACAUCCAGAAGGGUUACCACAUA [Eternabot solution 1] (Eterna round: R96, puzzle: Same State NG 2) | 211 | 549 | 656 | – | – | –
30 | ACAUGAAAUUCAGGAUAUUUUGUACCUACAUGUGACAUGAGGAUCACCCAUGUGGUAAGUAUGAGAAAGAAGGGAAAGAUAUGU [Equivalence 10 - Jieux - Same State NG 2] (Eterna round: R96, puzzle: Same State NG 2) | 25.4 | 41.9 | 45.6 | – | – | –
31 | ACAUGAGACAAAGGAUAUGGUGUACCUACAUGUGACAUGAGGAUCACCCAUGUGGUAAGUAUGACUCAGAAGGUUGAGAUAUGU [Equivalance 74 - Jieux - Same State NG 2] (Eterna round: R96, puzzle: Same State NG 2) | 37 | 203 | 299 | – | – | –
